Assay results published in US20220024981A1 (Novartis, published 2022).
Bridge positions count the residues as written; N and C are the ends. Square brackets hold non-standard residues; d marks the D form. Phe(3,4-Cl2) = N[C@@H](Cc1ccc(Cl)c(Cl)c1)C(=O)O; Phe(4-CF3) = N[C@@H](Cc1ccc(C(F)(F)F)cc1)C(=O)O; Bip = N[C@@H](Cc1ccc(-c2ccccc2)cc1)C(=O)O; Phe(3-F) = N[C@@H](Cc1cccc(F)c1)C(=O)O; NMeF = CN[C@@H](Cc1ccccc1)C(=O)O; NMeE = CN[C@@H](CCC(=O)O)C(=O)O; NMeA = CN[C@@H](C)C(=O)O

These binders were tested against T1, Human PCSK9 Alexa Fluor 647 (human, UniProt Q8NBP7 31-692, limits assumed, Alexa Fluor 647 label (site not stated)) (assay: TR-FRET competition: PCSK9-Alexa Fluor 647 vs LDLR ECD-Eu kryptate).
T1 construct: Labelled tracer of the TR-FRET assay, 16 nM stock; also called proprotein convertase subtilisin/kexin type 9
T1 sequence (Q8NBP7 31-692 limits assumed): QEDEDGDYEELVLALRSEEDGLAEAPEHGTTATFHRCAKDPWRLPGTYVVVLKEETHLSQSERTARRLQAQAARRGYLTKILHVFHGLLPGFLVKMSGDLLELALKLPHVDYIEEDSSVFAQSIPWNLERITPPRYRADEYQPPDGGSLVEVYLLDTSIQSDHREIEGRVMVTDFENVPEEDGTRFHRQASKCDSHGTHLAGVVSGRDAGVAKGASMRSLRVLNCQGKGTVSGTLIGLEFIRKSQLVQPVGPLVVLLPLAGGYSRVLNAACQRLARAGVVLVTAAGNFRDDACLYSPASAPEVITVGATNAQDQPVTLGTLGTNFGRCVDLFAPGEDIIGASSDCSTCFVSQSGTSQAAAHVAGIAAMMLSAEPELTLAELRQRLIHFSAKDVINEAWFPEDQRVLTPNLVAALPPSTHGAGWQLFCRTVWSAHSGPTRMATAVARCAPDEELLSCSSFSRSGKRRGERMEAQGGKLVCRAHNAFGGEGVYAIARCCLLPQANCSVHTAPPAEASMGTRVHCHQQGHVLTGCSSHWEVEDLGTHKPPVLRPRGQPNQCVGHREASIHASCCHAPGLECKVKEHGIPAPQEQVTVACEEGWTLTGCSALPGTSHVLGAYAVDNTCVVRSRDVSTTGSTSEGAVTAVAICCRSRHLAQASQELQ
Experimental: A Proxi plate-low volume assay plate was used for the assay. […] Following a 30 minute incubation, 5 uL of 4 nM Human LDLR extracellular domain-Europium Kryptate was added and the mixture was incubated for an additional 2 hours.
The TR-FRET signal was measured on an EnVision or PheraStar instrument with a 60 μs delay, 330 nm excitation and 665 nm emission (FRET), and 330 nm excitation and 615 nm (Europium). The FRET ratio (FRET/Europium) was used for calculations.

| Binder | IC50 | Maximum % inhibition |
| --- | --- | --- |
| {CH2CO}-FVDTTS[NMeF][Bip][NMeA]ESPCG-NH2 (thioether N-13; SMILES CC(C)[C@@H]1NC(=O)[C@H](Cc2ccccc2)NC(=O)CSC[C@@H](C(=O)NCC(N)=O)NC(=O)[C@@H]2CCCN2C(=O)[C@H](CO)NC(=O)[C@H](CCC(=O)O)NC(=O)[C@H](C)N(C)C(=O)[C@H](Cc2ccc(-c3ccccc3)cc2)NC(=O)[C@H](Cc2ccccc2)N(C)C(=O)[C@H](CO)NC(=O)[C@H]([C@@H](C)O)NC(=O)[C@H]([C@@H](C)O)NC(=O)[C@H](CC(=O)O)NC1=O, also called 1-5; Ex. No. 1-5) [Ac*-F-V-D-T-T-S-(N-Me)F-B-(N-Me)A-E-S-P-C*-G-NH2] | 35 nM | 95% |
| {CH2CO}-FVDTTS[NMeF][Bip][NMeE]NSPCG-NH2 (thioether N-13; SMILES CC(C)[C@@H]1NC(=O)[C@H](Cc2ccccc2)NC(=O)CSC[C@@H](C(=O)NCC(N)=O)NC(=O)[C@@H]2CCCN2C(=O)[C@H](CO)NC(=O)[C@H](CC(N)=O)NC(=O)[C@H](CCC(=O)O)N(C)C(=O)[C@H](Cc2ccc(-c3ccccc3)cc2)NC(=O)[C@H](Cc2ccccc2)N(C)C(=O)[C@H](CO)NC(=O)[C@H]([C@@H](C)O)NC(=O)[C@H]([C@@H](C)O)NC(=O)[C@H](CC(=O)O)NC1=O, also called 1-1; Ex. No. 1-1) [Ac*-F-V-D-T-T-S-(N-Me)F-B-(N-Me)E-N-S-P-C*-G-NH2] | 2.6 nM | 65% |
| {CH2CO}-FVDTTS[NMeF][Bip][NMeA]NSPCG-NH2 (thioether N-13; SMILES CC(C)[C@@H]1NC(=O)[C@H](Cc2ccccc2)NC(=O)CSC[C@@H](C(=O)NCC(N)=O)NC(=O)[C@@H]2CCCN2C(=O)[C@H](CO)NC(=O)[C@H](CC(N)=O)NC(=O)[C@H](C)N(C)C(=O)[C@H](Cc2ccc(-c3ccccc3)cc2)NC(=O)[C@H](Cc2ccccc2)N(C)C(=O)[C@H](CO)NC(=O)[C@H]([C@@H](C)O)NC(=O)[C@H]([C@@H](C)O)NC(=O)[C@H](CC(=O)O)NC1=O, also called 1-3; Ex. No. 1-3) [Ac*-F-V-D-T-T-S-(N-Me)F-B-(N-Me)A-N-S-P-C*-G-NH2] | 2.1 nM | 55% |
| {CH2CO}-FVDTTS[NMeA][Bip][NMeA]KSPCG-NH2 (thioether N-13; SMILES CC(C)[C@@H]1NC(=O)[C@H](Cc2ccccc2)NC(=O)CSC[C@@H](C(=O)NCC(N)=O)NC(=O)[C@@H]2CCCN2C(=O)[C@H](CO)NC(=O)[C@H](CCCCN)NC(=O)[C@H](C)N(C)C(=O)[C@H](Cc2ccc(-c3ccccc3)cc2)NC(=O)[C@H](C)N(C)C(=O)[C@H](CO)NC(=O)[C@H]([C@@H](C)O)NC(=O)[C@H]([C@@H](C)O)NC(=O)[C@H](CC(=O)O)NC1=O, also called 1-7; Ex. No. 1-7) [Ac*-F-V-D-T-T-S-(N-Me)A-B-(N-Me)A-K-S-P-C*-G-NH2] | 410 nM | 60% |
| {CH2CO}-FVDTTS[NMeF][Phe(4-CF3)][NMeA]ESPCG-NH2 (thioether N-13; SMILES CC(C)[C@@H]1NC(=O)[C@H](Cc2ccccc2)NC(=O)CSC[C@@H](C(=O)NCC(N)=O)NC(=O)[C@@H]2CCCN2C(=O)[C@H](CO)NC(=O)[C@H](CCC(=O)O)NC(=O)[C@H](C)N(C)C(=O)[C@H](Cc2ccc(C(F)(F)F)cc2)NC(=O)[C@H](Cc2ccccc2)N(C)C(=O)[C@H](CO)NC(=O)[C@H]([C@@H](C)O)NC(=O)[C@H]([C@@H](C)O)NC(=O)[C@H](CC(=O)O)NC1=O, also called 1-6; Ex. No. 1-6) [Ac*-F-V-D-T-T-S-(N-Me)F-(p-CF3)F-(N-Me)A-E-S-P-C*-G-NH2] | 12 nM | 97% |
| {CH2CO}-FVDSTY[NMeA][Bip][NMeA]NHPCG-NH2 (thioether N-13; SMILES CC(C)[C@@H]1NC(=O)[C@H](Cc2ccccc2)NC(=O)CSC[C@@H](C(=O)NCC(N)=O)NC(=O)[C@@H]2CCCN2C(=O)[C@H](Cc2c[nH]cn2)NC(=O)[C@H](CC(N)=O)NC(=O)[C@H](C)N(C)C(=O)[C@H](Cc2ccc(-c3ccccc3)cc2)NC(=O)[C@H](C)N(C)C(=O)[C@H](Cc2ccc(O)cc2)NC(=O)[C@H]([C@@H](C)O)NC(=O)[C@H](CO)NC(=O)[C@H](CC(=O)O)NC1=O, also called 1-4; Ex. No. 1-4) [Ac*-F-V-D-S-T-Y-(N-Me)A-B-(N-Me)A-N-H-P-C*-G-NH2] | 4 nM | 60% |
| FVSTTXAXADSPCG (not fully specified; N-terminal acetyl (Ac*) joined by a sulfide bond to the side chain of Cys13 (cyclic); 6: L-Bip; 7: L-(N-Me)Ala; 8: L-Bip; 9: L-(N-Me)Ala; C-terminal amide (NH2), also called 1-8; Ex. No. 1-8) [Ac*-F-V-S-T-T-B-(N-Me)A-B-(N-Me)A-D-S-P-C*-G-NH2] | 2.3 nM | 58% |
| {CH2CO}-FVDTT[Bip][NMeA][Bip][NMeA]ESPCG-NH2 (thioether N-13; SMILES CC(C)[C@@H]1NC(=O)[C@H](Cc2ccccc2)NC(=O)CSC[C@@H](C(=O)NCC(N)=O)NC(=O)[C@@H]2CCCN2C(=O)[C@H](CO)NC(=O)[C@H](CCC(=O)O)NC(=O)[C@H](C)N(C)C(=O)[C@H](Cc2ccc(-c3ccccc3)cc2)NC(=O)[C@H](C)N(C)C(=O)[C@H](Cc2ccc(-c3ccccc3)cc2)NC(=O)[C@H]([C@@H](C)O)NC(=O)[C@H]([C@@H](C)O)NC(=O)[C@H](CC(=O)O)NC1=O, also called 1-10; Ex. No. 1-10) [Ac*-F-V-D-T-T-B-(N-Me)A-B-(N-Me)A-E-S-P-C*-G-NH2] | 6 nM | 90% |
| {CH2CO}-FVDTT[Bip][NMeA][Phe(3,4-Cl2)][NMeA]ESPCG-NH2 (thioether N-13; SMILES CC(C)[C@@H]1NC(=O)[C@H](Cc2ccccc2)NC(=O)CSC[C@@H](C(=O)NCC(N)=O)NC(=O)[C@@H]2CCCN2C(=O)[C@H](CO)NC(=O)[C@H](CCC(=O)O)NC(=O)[C@H](C)N(C)C(=O)[C@H](Cc2ccc(Cl)c(Cl)c2)NC(=O)[C@H](C)N(C)C(=O)[C@H](Cc2ccc(-c3ccccc3)cc2)NC(=O)[C@H]([C@@H](C)O)NC(=O)[C@H]([C@@H](C)O)NC(=O)[C@H](CC(=O)O)NC1=O, also called 1-26; Ex. No. 1-26) [Ac*-F-V-D-T-T-B-(N-Me)A-(3,4-diCl)F-(N-Me)A-E-S-P-C*-G-NH2] | 2.4 nM | 84% |

Continued, values first:

| IC50 | Maximum % inhibition | Binder |
| --- | --- | --- |
| 3 nM | 35% | FVSTTSFXADRPCG (not fully specified; N-terminal acetyl (Ac*) joined by a sulfide bond to the side chain of Cys13 (cyclic); 7: L-(N-Me)Phe; 8: L-Bip; 9: L-(N-Me)Ala; C-terminal amide (NH2), also called 1-9; Ex. No. 1-9) [Ac*-F-V-S-T-T-S-(N-Me)F-B-(N-Me)A-D-R-P-C*-G-NH2] |
| 14 nM | 87% | FVSTTSFXAESPCG (not fully specified; N-terminal acetyl (Ac*) joined by a sulfide bond to the side chain of Cys13 (cyclic); 7: L-(N-Me)Phe; 8: L-Bip; 9: L-(N-Me)Ala; C-terminal amide (NH2), also called 1-12; Ex. No. 1-12) [Ac*-F-V-S-T-T-S-(N-Me)F-B-(N-Me)A-E-S-P-C*-G-NH2] |
| 2.5 nM | 68% | FVSTTXAXAESPCG (not fully specified; N-terminal acetyl (Ac*) joined by a sulfide bond to the side chain of Cys13 (cyclic); 6: L-Bip; 7: L-(N-Me)Ala; 8: L-Bip; 9: L-(N-Me)Ala; C-terminal amide (NH2), also called 1-25; Ex. No. 1-25) [Ac*-F-V-S-T-T-B-(N-Me)A-B-(N-Me)A-E-S-P-C*-G-NH2] |
| 1.3 nM |  | {CH2CO}-FVSTT[Bip][NMeA][Bip][NMeA]DRPCG-NH2 (thioether N-13, also called 1-2; Ex. No. 1-2) [Ac*-F-V-S-T-T-B-(N-Me)A-B-(N-Me)A-D-R-P-C*-G-NH2] |
| 12 nM | 53% | {CH2CO}-FVSTT[Bip][NMeA][Phe(3-F)][NMeA]DRPCG-NH2 (thioether N-13; SMILES CC(C)[C@@H]1NC(=O)[C@H](Cc2ccccc2)NC(=O)CSC[C@@H](C(=O)NCC(N)=O)NC(=O)[C@@H]2CCCN2C(=O)[C@H](CCCNC(=N)N)NC(=O)[C@H](CC(=O)O)NC(=O)[C@H](C)N(C)C(=O)[C@H](Cc2cccc(F)c2)NC(=O)[C@H](C)N(C)C(=O)[C@H](Cc2ccc(-c3ccccc3)cc2)NC(=O)[C@H]([C@@H](C)O)NC(=O)[C@H]([C@@H](C)O)NC(=O)[C@H](CO)NC1=O, also called 1-15; Ex. No. 1-15) [Ac*-F-V-S-T-T-B-(N-Me)A-(3-F)F-(N-Me)A-D-R-P-C*-G-NH2] |
| 2.7 nM | 38% | {CH2CO}-FVPTT[Bip][NMeA][Bip][NMeA]DRPCG-NH2 (thioether N-13; SMILES CC(C)[C@@H]1NC(=O)[C@H](Cc2ccccc2)NC(=O)CSC[C@@H](C(=O)NCC(N)=O)NC(=O)[C@@H]2CCCN2C(=O)[C@H](CCCNC(=N)N)NC(=O)[C@H](CC(=O)O)NC(=O)[C@H](C)N(C)C(=O)[C@H](Cc2ccc(-c3ccccc3)cc2)NC(=O)[C@H](C)N(C)C(=O)[C@H](Cc2ccc(-c3ccccc3)cc2)NC(=O)[C@H]([C@@H](C)O)NC(=O)[C@H]([C@@H](C)O)NC(=O)[C@@H]2CCCN2C1=O, also called 1-19; Ex. No. 1-19) [Ac*-F-V-P-T-T-B-(N-Me)A-B-(N-Me)A-D-R-P-C*-G-NH2] |
| 8.1 nM | 35% | FVSTTXAXAPSPCG (not fully specified; N-terminal acetyl (Ac*) joined by a sulfide bond to the side chain of Cys13 (cyclic); 6: L-Bip; 7: L-(N-Me)Ala; 8: L-Bip; 9: L-(N-Me)Ala; C-terminal amide (NH2), also called 1-20; Ex. No. 1-20) [Ac*-F-V-S-T-T-B-(N-Me)A-B-(N-Me)A-P-S-P-C*-G-NH2] |
| 3.6 nM | 55% | {CH2CO}-FVSTT[Phe(4-CF3)][NMeA][Phe(4-CF3)][NMeA]ERPCG-NH2 (thioether N-13; SMILES CC(C)[C@@H]1NC(=O)[C@H](Cc2ccccc2)NC(=O)CSC[C@@H](C(=O)NCC(N)=O)NC(=O)[C@@H]2CCCN2C(=O)[C@H](CCCNC(=N)N)NC(=O)[C@H](CCC(=O)O)NC(=O)[C@H](C)N(C)C(=O)[C@H](Cc2ccc(C(F)(F)F)cc2)NC(=O)[C@H](C)N(C)C(=O)[C@H](Cc2ccc(C(F)(F)F)cc2)NC(=O)[C@H]([C@@H](C)O)NC(=O)[C@H]([C@@H](C)O)NC(=O)[C@H](CO)NC1=O, also called 1-11; Ex. No. 1-11) [Ac*-F-V-S-T-T-(p-CF3)F-(N-Me)A-(p-CF3)F-(N-Me)A-E-R-P-C*-G-NH2] |
| 1.2 nM | 49% | {CH2CO}-FVSTT[Bip][NMeA][Phe(3,4-Cl2)][NMeA]DRPCG-NH2 (thioether N-13; SMILES CC(C)[C@@H]1NC(=O)[C@H](Cc2ccccc2)NC(=O)CSC[C@@H](C(=O)NCC(N)=O)NC(=O)[C@@H]2CCCN2C(=O)[C@H](CCCNC(=N)N)NC(=O)[C@H](CC(=O)O)NC(=O)[C@H](C)N(C)C(=O)[C@H](Cc2ccc(Cl)c(Cl)c2)NC(=O)[C@H](C)N(C)C(=O)[C@H](Cc2ccc(-c3ccccc3)cc2)NC(=O)[C@H]([C@@H](C)O)NC(=O)[C@H]([C@@H](C)O)NC(=O)[C@H](CO)NC1=O, also called 1-14; Ex. No. 1-14) [Ac*-F-V-S-T-T-B-(N-Me)A-(3,4-diCl)F-(N-Me)A-D-R-P-C*-G-NH2] |
| 7.8 nM | 86% | FVSTTXFXAESPCG (not fully specified; N-terminal acetyl (Ac*) joined by a sulfide bond to the side chain of Cys13 (cyclic); 6: L-Bip; 7: L-(N-Me)Phe; 8: L-Bip; 9: L-(N-Me)Ala; C-terminal amide (NH2), also called 1-13; Ex. No. 1-13) [Ac*-F-V-S-T-T-B-(N-Me)F-B-(N-Me)A-E-S-P-C*-G-NH2] |
